The values that follow come from publication doi:10.1101/2021.08.25.457658.

Data set [1] concerns the target T1, GST-p50 (NF-kB p50 subunit) (UniProt P19838-2 1-433, del434-969). Nature of the data set: EMSA. For orientation: Mobility shift assays separate free from complexed probe on a gel.
For data set [2], the target named is T1, GST-p50 (NF-kB p50 subunit). Nature of the data set: EMSA. The source holds these as a separate data set.

Where two headings read alike, the source gives them in different places.

B1: Spic promoter NF-kB site mutant (dsDNA)
DNA 1: GCTGCAAAGCCGATTTTTTTT
DNA 2: AAAAAAAATCGGCTTTGCAGC
Regarding B1, the binding result in data set [1] is “no binding”.

B2: Spic promoter NF-kB site WT (dsDNA)
DNA 1: GCTGCAAAGGGGATTTTTTTT
DNA 2: AAAAAAAATCCCCTTTGCAGC
On to B2, for which the binding result in data set [2] was “binds”.
